Test results taken from the RNAGym collection of RNA variant scans (doi:10.7554/elife.80360).

B1: HDV Ribozyme (parent)
chain: GGCCGGCAUGGUCCCAGCCUCCUCGCUGGCGCCGGCUGGGCAACAUUCCGAGGGGACCGUCCCCUCGGUAAUGGCGAAUGGGACCCA

Variants of: B1
Experiment: self-cleavage, relative activity (ratio to wild type); higher = more cleavage; co-transcriptional

**Q.** Which self-cleavage does the source give for GGCCGGCAUGGUCCCAGCCUGCUCGCUGGCGCCCGCUGGGCAACAUUCCGAGGGGACCGUCCCCUCGGUAAUGGCGAAUGGGACCCA here?
**A.** Its self-cleavage is 0.111.

**Q.** For GGCCGGCAUGGUCCCUGCCUCCUCGCUGGCGCCGGCUGGGCAACAUUCCGAGGGGACCGUCCCCUCGGUAAUAGCGAAUGGGACCCA, which self-cleavage is on record?
**A.** The self-cleavage was 0.222.

**Q.** For GGCCGGCAUGGUCCGAGCCUCCUCGCUGGCGCCGGCUGGGCCACAUUCCGAGGGGACCGUCCCCUCGGUAAUGGCGAAUGGGACCCA, which self-cleavage is on record?
**A.** The self-cleavage was 0.0755.

**Q.** With GGCCGGCAUGGUCCCAGCCUCCUCGCUGGCGCCGGCUGGGCAACAUUCCGAGGGGACCGUCCCCUCAGUAAUGGCGAAUGGGACCCA as the variant, how does the self-cleavage read?
**A.** The self-cleavage was 0.967.

**Q.** For GGCCGGCAUGGUCCCAGCCUCCUCCCUGGAGCCGGCUGGGCAACAUUCCGAGGGGACCGUCCCCUCGGUAAUGGCGAAUGGGACCCA, which self-cleavage is on record?
**A.** The self-cleavage was 0.0511.

**Q.** With GGCCGGCAUGGUCCCAGCCUCCUCGCUGGCGCCGGCUGGGCAACAUGCCGAUGGGACCGUCCCCUCGGUAAUGGCGAAUGGGACCCA as the variant, how does the self-cleavage read?
**A.** The self-cleavage was 0.877.

**Q.** Which self-cleavage does the source give for GGCCGGCAUGGUCCCAGCCUUCUCGCUGGCGCCGGCUGGGCAACAUUCCGAGGGGACGGUCCCCUCGGUAAUGGCGAAUGGGACCCA here?
**A.** The self-cleavage was 0.227.

**Q.** With GGCCGGCAUGGUCCCAGCCUCCUCGCUGGCGCCGGUUGGGCAACAUUCCGAGGGGACCGUCCCCUCAGUAAUGGCGAAUGGGACCCA as the variant, how does the self-cleavage read?
**A.** Its self-cleavage is 0.712.

**Q.** Which self-cleavage does the source give for GGCCGGCAUGGUCCCAGCGUCCUCGCUGGCGCCGGCUGGGCAACAUUCCGAGGGGACCGUCCCCUUGGUAAUGGCGAAUGGGACCCA here?
**A.** Its self-cleavage is 0.0639.

**Q.** For GGCCGGCAUGGUCCCAGCCUCCUCGCUGGCGCCGGCUGGGCAACAAUCCGAGGGGACCGUCCCCUCGGUAAUGGCGAAUGUGACCCA, which self-cleavage is on record?
**A.** Its self-cleavage is 0.271.

**Q.** For GGCCGGCAUGGUCCCAGCCUCCUCGCUGGCGCCGGCUGGGCAAUAUUCCGAGGGGACCGUCCCCUCGGUAAUGGCGAAUGGGACCCC, which self-cleavage is on record?
**A.** Its self-cleavage is 0.618.

**Q.** Which self-cleavage does the source give for GGCCGGCAUGGUCCCAGCCACCUCGCUGGCGCCGGCUGGGCAACAUUCCGAGGGGACCGUCCCCUCGGUAGUGGCGAAUGGGACCCA here?
**A.** Its self-cleavage is 0.0665.

**Q.** Which self-cleavage does the source give for GGCCGGCAUGGUCCCAGCCUCCUCCCUGGCGCCGGCUGGGCAACAUUCCGAGUGGACCGUCCCCUCGGUAAUGGCGAAUGGGACCCA here?
**A.** Its self-cleavage is 0.193.

**Q.** With GGCCGGCAUGGUCCCAGCCUCCUCGCUGGAGCCGGCUGGGCAACAUUCCGAGAGGACCGUCCCCUCGGUAAUGGCGAAUGGGACCCA as the variant, how does the self-cleavage read?
**A.** The self-cleavage was 0.389.

**Q.** With GGCCGGCAUGGUCCCAGCCUCCUCGCUGGCGCCGGCUGGGCAACAUUCCGAGGGGACCGUCCUCUCGGUAAUGGCGAAUGGGACGCA as the variant, how does the self-cleavage read?
**A.** The self-cleavage was 0.959.

**Q.** Which self-cleavage does the source give for GGCCGGCAUGGUCCCAGCCUCCUCGCUGGGGCCGGCUGGGCACCAUUCCGAGGGGACCGUCCCCUCGGUAAUGGCGAAUGGGACCCA here?
**A.** The self-cleavage was 0.0489.

**Q.** Which self-cleavage does the source give for GGCCGGCAUGGUCCCAGCCUCCUCGCUGGCGCCGGCUGGGCAACAUUCCGAGCGGACCGUCCCCUCGGUAAUGGCAAAUGGGACCCA here?
**A.** Its self-cleavage is 0.882.

**Q.** For GGCCGGCAUGGUCCCAGCCUCCUCGCUGGCGCCGGCUGGGCAACAUUCCGAGGGGACCGUCCCCUCGGUUAUGACGAAUGGGACCCA, which self-cleavage is on record?
**A.** Its self-cleavage is 0.358.

**Q.** With GGCCGGCAUGGUCCCAGCCUCCUCGCUGGCGCCAGAUGGGCAACAUUCCGAGGGGACCGUCCCCUCGGUAAUGGCGAAUGGGACCCA as the variant, how does the self-cleavage read?
**A.** Its self-cleavage is 0.0978.

**Q.** For GGCCGGCAUGGUCCCAACCUCCUCGCUGGCGCCGGCUGGGCAACAUUCCGAGGGGACCGUCCCGUCGGUAAUGGCGAAUGGGACCCA, which self-cleavage is on record?
**A.** The self-cleavage was 0.496.

**Q.** With GGCCGGCAUGGUCCCAGCCUCCUCGCAGGCGCCGGCUGUGCAACAUUCCGAGGGGACCGUCCCCUCGGUAAUGGCGAAUGGGACCCA as the variant, how does the self-cleavage read?
**A.** Its self-cleavage is 0.213.

**Q.** Which self-cleavage does the source give for GGCCGGCAUGGUCCCAGCCUCCUCGCUGGCGCCGGCUGGGCAACAUUCCGAGGGGACCGUCCCCUCGGUAAUGGCGAAUGGCAGCCA here?
**A.** The self-cleavage was 0.101.

**Q.** Which self-cleavage does the source give for GGCCGGCAUGGUCCCAGCUUCCUCGCUGGCGCCGGCUGGGCAACAUUCCGAGGGGACCGUCCCCUCGGUAAUGGCGAAUGGGCCCCA here?
**A.** The self-cleavage was 0.217.

**Q.** Which self-cleavage does the source give for CGCCGGCAUCGUCCCAGCCUCCUCGCUGGCGCCGGCUGGGCAACAUUCCGAGGGGACCGUCCCCUCGGUAAUGGCGAAUGGGACCCA here?
**A.** The self-cleavage was 0.095.

**Q.** Which self-cleavage does the source give for GGCCGGCAUGGUCCCAGCCUCCUCGCUGGCGCCGGCUGGGCAACAUUCCGACGGGACCGUCCCCUCGGUAAUGGAGAAUGGGACCCA here?
**A.** Its self-cleavage is 0.153.

**Q.** Which self-cleavage does the source give for GGCCGGCAUGGUCCCAGCCUUCUCGCUGGCGCCGGCUGGGCAACAUUCCGAGGGGACCGUCCCCUCGGUAAUGGCGAAUGGGACCGA here?
**A.** The self-cleavage was 0.253.

**Q.** Which self-cleavage does the source give for GGCCGGCAUGGUCCCAGCCUCCUCGCUGGCGCCGGCUGGGCAACAUUCCGAGGGGACCGUGCCCUCGGUAAUGGAGAAUGGGACCCA here?
**A.** The self-cleavage was 0.166.

**Q.** For GGCCGGCAUGGUCCCAGCCUCCUCGCUGGCGCCGGCUGGGCAACAUUCCGAGGGGACCGUUCCCUCGGUAAUGGCGGAUGGGACCCA, which self-cleavage is on record?
**A.** The self-cleavage was 1.12.

**Q.** With GGCCGGCAUGGUCCCAGCCUCCUGGCUGGCGCCGGCUGGGCAACAUUCCGAGGGGACCGACCCCUCGGUAAUGGCGAAUGGGACCCA as the variant, how does the self-cleavage read?
**A.** Its self-cleavage is 0.264.

**Q.** Which self-cleavage does the source give for GGCCGGCAUGGUCCCAGCCUCCUCGCUGGCGCCGGCUGGGCAACAUUCCGAGGGGACCGUCCCCUCGCUAAUGGCGAAUGGGACUCA here?
**A.** Its self-cleavage is 0.892.

**Q.** Which self-cleavage does the source give for GGCCGGCAUGGUCCCAGCCUCCUCGCUGGCGCCGGCUGGGCAACAUUCCGAGGGGACCUUCCCCUCGGUAAUGGAGAAUGGGACCCA here?
**A.** The self-cleavage was 0.0314.

**Q.** With GGCCGGCAUGGUCCCAGCCUCCUCGCUGGCGCCGCCUGGGCAACAUUCCGAGGGGACCGUCCCCUCGGUAAUGGCGAAUGGGACACA as the variant, how does the self-cleavage read?
**A.** The self-cleavage was 0.213.
